Measured values published in PMC5818060, “A CK1 FRET biosensor reveals that DDX3X is an essential activator of CK1ε” (Journal of Cell Science, 2018).
Values belong to the binder of their own block, whether it stands above or below them. Ends that are not written are not given here. * marks the point of attachment. Biotin = O=C1N[C@H]2[C@H](CS[C@H]2CCCCC(=O)*)N1

What was measured:
Details in all cases: both partners purified
His-DDX3X^414-582 [1] = molecular target: T1, His-DDX3X^414-582 (human, UniProt O00571 414-582); experiment: fluorescence thermal shift (FTS) assay; 10 µM His-DDX3X^414-582, 20 µM peptide, 50 mM HEPES pH 8, 10x SYPRO-Orange; change of melting temperature
T1 construct: DEAD box RNA helicase 3 X-linked (DDX3X), human, UniProt O00571, C-terminal helicase domain, aa 414-582; Named without the His tag in the BLItz methods; also called C-terminal helicase domain of DDX3X; source: dialyzed in 50 mM HEPES pH 8 for ELISA and FTS
T1 sequence (O00571 414-582): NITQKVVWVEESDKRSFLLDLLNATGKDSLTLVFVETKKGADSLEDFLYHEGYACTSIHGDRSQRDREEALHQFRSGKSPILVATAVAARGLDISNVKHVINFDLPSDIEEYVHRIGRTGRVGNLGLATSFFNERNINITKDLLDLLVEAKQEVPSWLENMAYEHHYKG

His-DDX3X^414-582 [2] = molecular target: T1, His-DDX3X^414-582; experiment: ELISA; His-DDX3X^414-582 coated on MaxiSorp plates (0.01 µg/µl, 100 mM sodium carbonate pH 9.6, 4°C overnight); biotinylated peptides 1 µg/well, 2.5 h at room temperature; detection with HRP-streptavidin
Flag-DDX3X = molecular target: T2, Flag-DDX3X (human, UniProt O00571 1-662); experiment: pull-down; purified Flag-DDX3X proteins, incubated with total RNA where indicated, subjected to bead-coupled HA-CK1ε; Western blot
T2 construct: DEAD box RNA helicase 3 X-linked (DDX3X), human, UniProt O00571, full length; pCS-based vector with N-terminal Flag tag; purification as in Cruciat et al., 2013; also called wild-type DDX3X; DDX3X WT; source: HEK293T, transfected, purified on Flag beads (high-salt wash, eluted with Flag peptide); not shown: Flag, N-terminal, kept
T2 sequence (O00571 whole entry): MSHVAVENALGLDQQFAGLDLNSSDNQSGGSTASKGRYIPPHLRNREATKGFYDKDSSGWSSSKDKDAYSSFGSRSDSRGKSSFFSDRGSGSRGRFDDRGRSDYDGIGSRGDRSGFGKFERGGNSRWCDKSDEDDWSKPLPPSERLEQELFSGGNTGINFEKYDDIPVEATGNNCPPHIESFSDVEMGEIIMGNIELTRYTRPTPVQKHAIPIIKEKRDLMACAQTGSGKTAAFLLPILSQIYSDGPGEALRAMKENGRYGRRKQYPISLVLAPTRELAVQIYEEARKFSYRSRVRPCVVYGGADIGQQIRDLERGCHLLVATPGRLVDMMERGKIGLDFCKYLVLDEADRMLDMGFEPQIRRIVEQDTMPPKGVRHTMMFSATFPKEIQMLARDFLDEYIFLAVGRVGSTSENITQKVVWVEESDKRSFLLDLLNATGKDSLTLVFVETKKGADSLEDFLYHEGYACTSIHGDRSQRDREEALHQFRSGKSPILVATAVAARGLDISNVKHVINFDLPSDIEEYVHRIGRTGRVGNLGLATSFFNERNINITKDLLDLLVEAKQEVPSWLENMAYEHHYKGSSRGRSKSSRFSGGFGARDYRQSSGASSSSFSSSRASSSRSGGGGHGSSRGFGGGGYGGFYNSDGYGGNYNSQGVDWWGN

His-DDX3X^414-582 [3] = molecular target: T1, His-DDX3X^414-582; experiment: fluorescence thermal shift (FTS) assay; FTS with varying concentrations of peptide; melting temperatures fitted to single site or simple cooperative ligand binding, preferred model chosen

B1: CK1ε-derived peptide ε-41 (peptide)
peptide: Biotin-SGSGCVKTKHPQLHIESKF
notes: four amino acid spacer between biotin and the peptide; casein kinase 1 epsilon (CK1ε), human, UniProt P49674; source: synthetic peptide (peptide library), pre-dissolved in DMSO; not shown: biotin, N-terminal, kept
increase of the melting temperature (Tm) of His-DDX3X^414-582 (His-DDX3X^414-582 [1]): 6.3 °C

B2: CK1ε-derived peptide ε-241 (peptide)
peptide: Biotin-SGSGCKGYPSEFSTYLNFC
modifications: cysteine pairing not given here
notes: as for B1
binding result (His-DDX3X^414-582 [2]): binds

B3: CK1δ-derived peptide δ-31 (peptide)
peptide: Biotin-SGSGAGEEVAIKLECVKTK
notes: four amino acid spacer between biotin and the peptide; casein kinase 1 delta (CK1δ), human, UniProt P48730; source: synthetic peptide (peptide library), pre-dissolved in DMSO; not shown: biotin, N-terminal, kept
binding result (His-DDX3X^414-582 [2]): binds

B9: CK1δ-derived peptide δ-1 (peptide)
peptide: Biotin-SGSGMELRVGNRYRLGRKI
notes: four amino acid spacer between biotin and the peptide; casein kinase 1 delta (CK1δ), human, UniProt P48730; also called P1; source: synthetic peptide (peptide library), pre-dissolved in DMSO; not shown: biotin, N-terminal, kept
Kd (His-DDX3X^414-582 [3]): 15.6 µM | increase of the melting temperature (Tm) of His-DDX3X^414-582 (His-DDX3X^414-582 [1]): 3.5 °C

B10: CK1ε-derived peptide ε-1 (peptide)
peptide: Biotin-SGSGMELRVGNKYRLGRKI
notes: four amino acid spacer between biotin and the peptide; casein kinase 1 epsilon (CK1ε), human, UniProt P49674; differs from δ-1 only by K for R in the middle of the peptide; source: synthetic peptide (peptide library), pre-dissolved in DMSO; not shown: biotin, N-terminal, kept
increase of the melting temperature (Tm) of His-DDX3X^414-582 (His-DDX3X^414-582 [1]): 4.6 °C

Now from value to binder:

binding result (His-DDX3X^414-582 [2]): binds
B4: CK1δ-derived peptide δ-231 (peptide)
peptide: Biotin-SGSGKKMSTPIEVLCKGYP
notes: as for B3

binding result (Flag-DDX3X): binds
B5: HA-CK1ε (enzyme, human, UniProt P49674 1-416, looked up)
chain: MELRVGNKYRLGRKIGSGSFGDIYLGANIASGEEVAIKLECVKTKHPQLHIESKFYKMMQGGVGIPSIKWCGAEGDYNVMVMELLGPSLEDLFNFCSRKFSLKTVLLLADQMISRIEYIHSKNFIHRDVKPDNFLMGLGKKGNLVYIIDFGLAKKYRDARTHQHIPYRENKNLTGTARYASINTHLGIEQSRRDDLESLGYVLMYFNLGSLPWQGLKAATKRQKYERISEKKMSTPIEVLCKGYPSEFSTYLNFCRSLRFDDKPDYSYLRQLFRNLFHRQGFSYDYVFDWNMLKFGAARNPEDVDRERREHEREERMGQLRGSATRALPPGPPTGATANRLRSAAEPVASTPASRIQPAGNTSPRAISRVDRERKVSMRLHRGAPANVSSSDLTGRQEVSRIPASQTSVPFDHLGK
notes: casein kinase 1 epsilon (CK1ε), human, UniProt P49674; The methods name a pCS-based vector with N-terminal HA tag for human cell culture work; also called bead-coupled HA-CK1ε; casein kinase 1 epsilon; source: bead-coupled; not shown: HA, N-terminal, kept

binding result (His-DDX3X^414-582 [2]): binds
B6: CK1δ-derived peptide δ-91 (peptide)
peptide: Biotin-SGSGDLFNFCSRKFSLKTV
notes: as for B3

binding result (His-DDX3X^414-582 [2]): binds
B7: CK1ε-derived peptide ε-61 (peptide)
peptide: Biotin-SGSGGGVGIPSIKWCGAEG
notes: as for B1

binding result (His-DDX3X^414-582 [2]): binds
B8: CK1δ-derived peptide δ-141 (peptide)
peptide: Biotin-SGSGKGNLVYIIDFGLAKK
notes: as for B3
